B1: Zinc finger protein 581 (Homo sapiens), Q9P0T4 (parent)
chain: MLVLPSPCPQPLAFSSVETMEGPPRRTCRSPEPGPSSSIGSPQASSPPRPNHYLLIDTQGVPYTVLVDEESQREPGASGAPGQKKCYSCPVCSRVFEYMSYLQRHSITHSEVKPFECDICGKAFKRASHLARHHSIHLAGGGRPHGCPLCPRRFRDAGELAQHSRVHSGERPFQCPHCPRRFMEQNTLQKHTRWKHP
B2: Tuftelin-interacting protein 11 (Homo sapiens), Q9UBB9 (parent)
chain: MSLSHLYRDGEGRIDDDDDERENFEITDWDLQNEFNPNRQRHWQTKEEATYGVWAERDSDDERPSFGGKRARDYSAPVNFISAGLKKGAAEEAELEDSDDEEKPVKQDDFPKDFGPRKLKTGGNFKPSQKGFAGGTKSFMDFGSWERHTKGIGQKLLQKMGYVPGRGLGKNAQGIINPIEAKQRKGKGAVGAYGSERTTQSMQDFPVVDSEEEAEEEFQKELSQWRKDPSGSKKKPKYSYKTVEELKAKGRISKKLTAPQKELSQVKVIDMTGREQKVYYSYSQISHKHNVPDDGLPLQSQQLPQSGKEAKAPGFALPELEHNLQLLIDLTEQEIIQNDRQLQYERDMVVNLFHELEKMTEVLDHEERVISNLSKVLEMVEECERRMQPDCSNPLTLDECARIFETLQDKYYEEYRMSDRVDLAVAIVYPLMKEYFKEWDPLKDCTYGTEIISKWKSLLENDQLLSHGGQDLSADAFHRLIWEVWMPFVRNIVTQWQPRNCDPMVDFLDSWVHIIPVWILDNILDQLIFPKLQKEVENWNPLTDTVPIHSWIHPWLPLMQARLEPLYSPIRSKLSSALQKWHPSDSSAKLILQPWKDVFTPGSWEAFMVKNIVPKLGMCLGELVINPHQQHMDAFYWVIDWEGMISVSSLVGLLEKHFFPKWLQVLCSWLSNSPNYEEITKWYLGWKSMFSDQVLAHPSVKDKFNEALDIMNRAVSSNVGAYMQPGARENIAYLTHTERRKDFQYEAMQERREAENMAQRGIGVAASSVPMNFKDLIETKAEEHNIVFMPVIGKRHEGKQLYTFGRIVIYIDRGVVFVQGEKTWVPTSLQSLIDMAK
partner: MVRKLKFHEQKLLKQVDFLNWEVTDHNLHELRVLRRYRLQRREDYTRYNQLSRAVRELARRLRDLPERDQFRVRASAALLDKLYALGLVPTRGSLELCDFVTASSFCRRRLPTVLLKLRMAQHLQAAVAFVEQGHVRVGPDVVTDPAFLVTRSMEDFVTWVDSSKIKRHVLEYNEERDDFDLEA
B3: Leucine rich adaptor protein 1 (Homo sapiens), Q96LR2 (parent)
chain: MEGTVESQTPDLRDVEGKVGRKTPEGLLRGLRGECELGTSGALLLPGASSTGHDLGDKIMALKMELAYLRAIDVKILQQLVTLNEGIEAVRWLLEERGTLTSHCSSLTSSQYSLTGGSPGRSRRGSWDSLPDTSTTDRLDSVSIGSFLDTVAPSELDEQGPPGAPRSEMDWAKVIAGGERARTEVDVAATRLGSLRAVWKPPGERLQGGPPESPEDESAKLGFEAHWFWEQCQDDVTFL
partner: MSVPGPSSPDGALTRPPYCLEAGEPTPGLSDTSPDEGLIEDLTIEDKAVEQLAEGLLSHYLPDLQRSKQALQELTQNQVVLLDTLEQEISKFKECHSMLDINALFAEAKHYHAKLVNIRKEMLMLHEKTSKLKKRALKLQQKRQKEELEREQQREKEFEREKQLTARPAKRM
B4: Pleckstrin homology domain-containing family N member 1 (Homo sapiens), Q494U1 (parent)
chain: MGNSHCVPQAPRRLRASFSRKPSLKGNREDSARMSAGLPGPEAARSGDAAANKLFHYIPGTDILDLENQRENLEQPFLSVFKKGRRRVPVRNLGKVVHYAKVQLRFQHSQDVSDCYLELFPAHLYFQAHGSEGLTFQGLLPLTELSVCPLEGSREHAFQITGPLPAPLLVLCPSRAELDRWLYHLEKQTALLGGPRRCHSAPPQRRLTRLRTASGHEPGGSAVCASRVKLQHLPAQEQWDRLLVLYPTSLAIFSEELDGLCFKGELPLRAVHINLEEKEKQIRSFLIEGPLINTIRVVCASYEDYGHWLLCLRAVTHREGAPPLPGAESFPGSQVMGSGRGSLSSGGQTSWDSGCLAPPSTRTSHSLPESSVPSTVGCSSQHTPDQANSDRASIGRRRTELRRSGSSRSPGSKARAEGRGPVTPLHLDLTQLHRLSLESSPDAPDHTSETSHSPLYADPYTPPATSHRRVTDVRGLEEFLSAMQSARGPTPSSPLPSVPVSVPASDPRSCSSGPAGPYLLSKKGALQSRAAQRHRGSAKDGGPQPPDAPQLVSSAREGSPEPWLPLTDGRSPRRSRDPGYDHLWDETLSSSHQKCPQLGGPEASGGLVQWI
partner: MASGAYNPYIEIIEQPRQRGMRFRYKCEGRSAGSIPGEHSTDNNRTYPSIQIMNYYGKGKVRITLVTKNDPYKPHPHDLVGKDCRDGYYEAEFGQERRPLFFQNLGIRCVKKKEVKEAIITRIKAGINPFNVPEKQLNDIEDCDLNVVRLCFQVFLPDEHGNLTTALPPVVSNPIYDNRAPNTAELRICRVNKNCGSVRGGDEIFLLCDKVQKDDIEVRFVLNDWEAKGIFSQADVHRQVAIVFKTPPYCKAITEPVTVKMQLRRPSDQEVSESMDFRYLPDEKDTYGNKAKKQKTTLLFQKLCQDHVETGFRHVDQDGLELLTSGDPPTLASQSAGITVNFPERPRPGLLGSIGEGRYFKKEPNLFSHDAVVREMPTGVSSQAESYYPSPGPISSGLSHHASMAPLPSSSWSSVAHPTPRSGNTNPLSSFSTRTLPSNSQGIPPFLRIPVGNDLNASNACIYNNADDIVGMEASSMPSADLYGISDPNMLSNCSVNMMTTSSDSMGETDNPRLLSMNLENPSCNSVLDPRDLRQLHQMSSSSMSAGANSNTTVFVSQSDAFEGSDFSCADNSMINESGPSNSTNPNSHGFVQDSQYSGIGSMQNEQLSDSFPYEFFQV
B5: Testis-specific protein 10-interacting protein (Homo sapiens), Q3SY00 (parent)
chain: MGQDTDMLNTYQQLVRTPSVRPGQDVRLQAPGTRTGLLKLLSTVSQDKQGCLGSGDGVPNQDLQQRSQSSRQTAKKDRKPRGQSKKGQGSEESEDHFPLLPRKPSFPFQWAWESIATDVRAVLQPSSPTPGHQALPMPSSFSQRQSRRKSTANLPEAHGCCWKTEAQNLKARQQLGAWGGVSIPTGKGELGSEPPSGLQLPGRRPGSGSASDKQVQLQSLGAEEAERGLSSGVLPQRPRRGSISEEEQFSEATEEAEEGEHRTPCRRRAGCQRKGQISGEEASDEGEVQGQSQGSSPSFNNLRRRQWRKTRAKELQGPWDLEKLHRQLQRDLDCGPQKLPWKTLRAAFQASKRNGKAYASGYDETFVSANLPNRTFHKRQEATRSLLQAWERQRQEERQQAELRRARTQHVQRQVAHCLAAYAPRGSRGPGAAQRKLEELRRQERQRFAEYQAELQGIQHRVQARPFLFQQAMQANARLTVTRRFSQVLSALGLDEEQLLSEAGKVDREGTPRKPRSHRSMGVRMEHSPQRPPRTEPTGSQPDRHYNPSLDPECSP
B6: Keratin, type I cuticular Ha8 (Homo sapiens), O76015 (parent)
chain: MTSSYSSSSCPLGCTMAPGARNVSVSPIDIGCQPGAEANIAPMCLLANVAHANRVRVGSTPLGRPSLCLPPTCHTACPLPGTCHIPGNIGICGAYGENTLNGHEKETMQFLNDRLANYLEKVRQLEQENAELEATLLERSKCHESTVCPDYQSYFHTIEELQQKILCSKAENARLIVQIDNAKLAADDFRIKLESERSLRQLVEADKCGTQKLLDDATLAKADLEAQQESLKEEQLSLKSNHEQEVKILRSQLGEKLRIELDIEPTIDLNRVLGEMRAQYEAMLETNRQDVEQWFQAQSEGISLQDMSCSEELQCCQSEILELRCTVNALEVERQAQHTLKDCLQNSLCEAEDRFGTELAQMQSLISNVEEQLSEIRADLERQNQEYQVLLDVKTRLENEIATYRNLLESEDCKLPCNPCSTSPSCVTAPCAPRPSCGPCTTCGPTCGASTTGSRF
B7: ADP-ribosylation factor-like protein 11 (Homo sapiens), Q969Q4 (parent)
chain: MGSVNSRGHKAEAQVVMMGLDSAGKTTLLYKLKGHQLVETLPTVGFNVEPLKAPGHVSLTLWDVGGQAPLRASWKDYLEGTDILVYVLDSTDEARLPESAAELTEVLNDPNMAGVPFLVLANKQEAPDALPLLKIRNRLSLERFQDHCWELRGCSALTGEGLPEALQSLWSLLKSRSCMCLQARAHGAERGDSKRS
partner: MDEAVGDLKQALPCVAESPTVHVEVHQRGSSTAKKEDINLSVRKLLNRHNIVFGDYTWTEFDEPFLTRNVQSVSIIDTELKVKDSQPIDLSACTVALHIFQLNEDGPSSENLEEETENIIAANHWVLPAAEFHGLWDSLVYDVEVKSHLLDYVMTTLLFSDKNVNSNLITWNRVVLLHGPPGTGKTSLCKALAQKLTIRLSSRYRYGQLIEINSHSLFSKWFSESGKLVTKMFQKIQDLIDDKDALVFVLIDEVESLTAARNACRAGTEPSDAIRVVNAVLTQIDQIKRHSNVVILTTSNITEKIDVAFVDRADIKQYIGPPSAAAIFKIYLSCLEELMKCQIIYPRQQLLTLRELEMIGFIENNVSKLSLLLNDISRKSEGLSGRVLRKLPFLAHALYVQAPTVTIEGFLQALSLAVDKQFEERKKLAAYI
B8: Pleckstrin homology domain-containing family N member 1 (Homo sapiens), Q494U1 (parent)
chain: B4 chain

Variants of: B1
Conditions: with cc136_human CCDC136, Q96JN2
cc136_human CCDC136, Q96JN2, sequence (Q96JN2 whole entry): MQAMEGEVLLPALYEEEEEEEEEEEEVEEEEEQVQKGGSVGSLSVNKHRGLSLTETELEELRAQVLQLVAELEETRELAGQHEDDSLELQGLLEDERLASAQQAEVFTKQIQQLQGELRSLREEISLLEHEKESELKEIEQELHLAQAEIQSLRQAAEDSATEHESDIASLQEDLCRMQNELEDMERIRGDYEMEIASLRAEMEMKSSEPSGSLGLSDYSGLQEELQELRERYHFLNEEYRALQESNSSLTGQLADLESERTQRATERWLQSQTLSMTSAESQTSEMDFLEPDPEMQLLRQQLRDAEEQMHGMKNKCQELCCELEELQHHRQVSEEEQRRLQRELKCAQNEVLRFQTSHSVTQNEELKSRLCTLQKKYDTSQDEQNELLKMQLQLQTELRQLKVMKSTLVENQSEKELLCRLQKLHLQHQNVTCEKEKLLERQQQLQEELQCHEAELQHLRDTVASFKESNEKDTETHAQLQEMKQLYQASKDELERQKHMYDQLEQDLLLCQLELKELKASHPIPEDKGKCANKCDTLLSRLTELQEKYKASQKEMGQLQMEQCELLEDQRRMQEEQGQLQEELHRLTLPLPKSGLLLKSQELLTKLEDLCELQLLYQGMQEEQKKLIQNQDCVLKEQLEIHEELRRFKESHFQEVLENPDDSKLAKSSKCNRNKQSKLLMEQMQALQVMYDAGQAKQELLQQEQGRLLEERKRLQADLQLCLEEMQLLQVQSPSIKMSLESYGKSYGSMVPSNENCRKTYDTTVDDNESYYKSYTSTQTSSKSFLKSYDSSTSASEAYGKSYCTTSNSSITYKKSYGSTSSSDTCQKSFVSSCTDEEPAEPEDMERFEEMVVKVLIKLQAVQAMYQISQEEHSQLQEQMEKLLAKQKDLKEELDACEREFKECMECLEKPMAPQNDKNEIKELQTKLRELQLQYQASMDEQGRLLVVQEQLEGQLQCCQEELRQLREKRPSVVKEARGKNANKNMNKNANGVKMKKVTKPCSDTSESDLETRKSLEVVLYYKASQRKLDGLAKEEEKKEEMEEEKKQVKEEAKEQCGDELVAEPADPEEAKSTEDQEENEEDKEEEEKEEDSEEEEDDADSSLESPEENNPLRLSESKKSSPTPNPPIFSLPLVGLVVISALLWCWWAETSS

Row | Variant | effect of a mutation on the interaction
1 | R143W | with no effect
2 | E32A | with no effect

Variants of: B1
Conditions: with mtus2_human MTUS2, Q5JR59
Target sequence in this assay (Q5JR59 whole entry): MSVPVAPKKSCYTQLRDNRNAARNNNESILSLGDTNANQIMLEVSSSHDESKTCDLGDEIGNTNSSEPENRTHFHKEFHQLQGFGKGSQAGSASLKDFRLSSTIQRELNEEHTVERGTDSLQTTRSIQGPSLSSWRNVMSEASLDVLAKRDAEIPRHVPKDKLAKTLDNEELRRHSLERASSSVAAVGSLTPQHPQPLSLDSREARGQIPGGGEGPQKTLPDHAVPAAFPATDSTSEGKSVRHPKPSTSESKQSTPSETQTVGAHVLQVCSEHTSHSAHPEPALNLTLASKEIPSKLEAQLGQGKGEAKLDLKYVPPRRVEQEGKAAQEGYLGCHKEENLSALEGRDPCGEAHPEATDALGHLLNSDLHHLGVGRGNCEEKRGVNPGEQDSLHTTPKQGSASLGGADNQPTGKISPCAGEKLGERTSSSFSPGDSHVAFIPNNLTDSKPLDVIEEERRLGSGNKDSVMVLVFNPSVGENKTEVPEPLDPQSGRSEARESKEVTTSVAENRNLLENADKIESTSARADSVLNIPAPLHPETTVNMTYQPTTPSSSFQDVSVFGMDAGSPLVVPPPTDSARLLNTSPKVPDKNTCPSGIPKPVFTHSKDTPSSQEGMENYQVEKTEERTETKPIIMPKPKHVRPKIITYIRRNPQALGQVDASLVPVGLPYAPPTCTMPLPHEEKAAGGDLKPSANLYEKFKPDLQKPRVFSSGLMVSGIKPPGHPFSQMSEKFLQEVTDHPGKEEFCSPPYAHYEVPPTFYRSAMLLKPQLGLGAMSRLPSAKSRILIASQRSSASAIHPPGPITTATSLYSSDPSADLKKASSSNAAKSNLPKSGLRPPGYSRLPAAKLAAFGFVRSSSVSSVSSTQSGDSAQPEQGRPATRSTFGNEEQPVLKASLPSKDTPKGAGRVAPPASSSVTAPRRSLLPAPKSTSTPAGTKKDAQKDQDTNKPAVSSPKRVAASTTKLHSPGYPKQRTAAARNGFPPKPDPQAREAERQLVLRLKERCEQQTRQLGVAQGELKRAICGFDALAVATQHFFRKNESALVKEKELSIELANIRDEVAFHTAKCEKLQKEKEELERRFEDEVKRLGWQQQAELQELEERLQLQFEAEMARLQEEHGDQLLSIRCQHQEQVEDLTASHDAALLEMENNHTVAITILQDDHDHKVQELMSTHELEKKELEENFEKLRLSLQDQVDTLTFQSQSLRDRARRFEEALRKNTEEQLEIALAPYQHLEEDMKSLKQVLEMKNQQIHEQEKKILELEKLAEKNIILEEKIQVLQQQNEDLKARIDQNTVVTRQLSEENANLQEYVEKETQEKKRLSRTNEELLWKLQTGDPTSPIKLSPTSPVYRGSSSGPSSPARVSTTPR

Row | Variant | effect of a mutation on the interaction
3 | R143W | with no effect
4 | E32A | with no effect

Variants of: B1
Conditions: with tri23_human TRIM23, P36406
tri23_human TRIM23, P36406, sequence (P36406 whole entry): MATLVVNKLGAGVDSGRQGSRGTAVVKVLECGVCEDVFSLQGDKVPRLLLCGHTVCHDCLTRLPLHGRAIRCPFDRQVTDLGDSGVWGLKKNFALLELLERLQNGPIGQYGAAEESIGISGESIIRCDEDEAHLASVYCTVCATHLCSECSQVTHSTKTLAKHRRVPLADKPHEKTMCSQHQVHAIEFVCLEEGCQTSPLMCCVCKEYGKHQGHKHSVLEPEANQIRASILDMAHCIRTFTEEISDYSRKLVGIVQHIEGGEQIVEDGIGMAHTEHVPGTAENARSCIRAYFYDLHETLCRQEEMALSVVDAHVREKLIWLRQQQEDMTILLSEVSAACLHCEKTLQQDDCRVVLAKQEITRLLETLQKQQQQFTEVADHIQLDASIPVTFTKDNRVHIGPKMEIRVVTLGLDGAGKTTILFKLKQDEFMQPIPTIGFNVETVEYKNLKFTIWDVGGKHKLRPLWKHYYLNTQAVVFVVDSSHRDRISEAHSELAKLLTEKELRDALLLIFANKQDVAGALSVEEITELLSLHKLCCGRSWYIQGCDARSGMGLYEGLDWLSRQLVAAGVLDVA

Row | Variant | effect of a mutation on the interaction
5 | R143W | with no effect
6 | E32A | with no effect

Variants of: B2
Conditions: with imp3_human IMP3, Q9NV31

Row | Variant | effect of a mutation on the interaction
7 | S688L | with no effect
8 | R8Q | with no effect

Variants of: B3
Conditions: with bl1s6_human BLOC1S6, Q9UL45

Row | Variant | effect of a mutation on the interaction
9 | Q207R | disrupting interaction strength
10 | M60L | with no effect

Variants of: B4
Conditions: with rel_human REL

Row | Variant | effect of a mutation on the interaction
11 | R487P | with no effect

Variants of: B5
Conditions: with mtus2_human MTUS2, Q5JR59
Target sequence in this assay (Q5JR59 whole entry): as the sequence (Q5JR59 whole entry) above

Row | Variant | effect of a mutation on the interaction
12 | R305P | with no effect
13 | S292N | with no effect
14 | H96L | with no effect
15 | S242L | with no effect
16 | D25E | with no effect
17 | R303Q | with no effect
18 | V215A | with no effect
19 | R237S | with no effect

Variants of: B5
Conditions: with cep70_human CEP70, Q8NHQ1
cep70_human CEP70, Q8NHQ1, sequence (Q8NHQ1 whole entry): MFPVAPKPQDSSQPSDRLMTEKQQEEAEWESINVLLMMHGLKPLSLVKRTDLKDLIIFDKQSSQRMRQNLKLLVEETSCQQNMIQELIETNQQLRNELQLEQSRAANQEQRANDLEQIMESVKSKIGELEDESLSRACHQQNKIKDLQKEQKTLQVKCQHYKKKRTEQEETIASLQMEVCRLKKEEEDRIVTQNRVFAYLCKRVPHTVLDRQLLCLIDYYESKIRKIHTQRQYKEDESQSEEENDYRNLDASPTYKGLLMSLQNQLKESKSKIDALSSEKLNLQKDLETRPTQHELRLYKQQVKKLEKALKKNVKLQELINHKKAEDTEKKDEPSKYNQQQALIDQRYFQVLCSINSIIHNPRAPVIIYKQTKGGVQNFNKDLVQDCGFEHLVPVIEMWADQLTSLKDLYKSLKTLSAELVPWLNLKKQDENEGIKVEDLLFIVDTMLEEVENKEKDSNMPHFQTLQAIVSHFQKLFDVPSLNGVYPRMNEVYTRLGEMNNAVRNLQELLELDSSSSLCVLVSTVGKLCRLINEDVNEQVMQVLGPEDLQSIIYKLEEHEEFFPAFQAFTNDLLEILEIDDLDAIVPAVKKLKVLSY

Row | Variant | effect of a mutation on the interaction
20 | S242L | with no effect
21 | A210V | with no effect

Variants of: B6
Conditions: with k2c4_human KRT4, P19013

Row | Variant | effect of a mutation on the interaction
22 | A205S | with no effect

Variants of: B6
Conditions: with k2c8_human KRT8, P05787

Row | Variant | effect of a mutation on the interaction
23 | A205S | with no effect

Variants of: B6
Conditions: with KRT6A

Row | Variant | effect of a mutation on the interaction
24 | A205S | with no effect

Variants of: B6
Conditions: with k22e_human KRT2, P35908

Row | Variant | effect of a mutation on the interaction
25 | A205S | with no effect

Variants of: B7
Conditions: with pch2_human TRIP13, Q15645

Row | Variant | effect of a mutation on the interaction
26 | C148R | with no effect

Variants of: B8
Conditions: with itf2_human TCF4, P15884
itf2_human TCF4, P15884, sequence (P15884 whole entry): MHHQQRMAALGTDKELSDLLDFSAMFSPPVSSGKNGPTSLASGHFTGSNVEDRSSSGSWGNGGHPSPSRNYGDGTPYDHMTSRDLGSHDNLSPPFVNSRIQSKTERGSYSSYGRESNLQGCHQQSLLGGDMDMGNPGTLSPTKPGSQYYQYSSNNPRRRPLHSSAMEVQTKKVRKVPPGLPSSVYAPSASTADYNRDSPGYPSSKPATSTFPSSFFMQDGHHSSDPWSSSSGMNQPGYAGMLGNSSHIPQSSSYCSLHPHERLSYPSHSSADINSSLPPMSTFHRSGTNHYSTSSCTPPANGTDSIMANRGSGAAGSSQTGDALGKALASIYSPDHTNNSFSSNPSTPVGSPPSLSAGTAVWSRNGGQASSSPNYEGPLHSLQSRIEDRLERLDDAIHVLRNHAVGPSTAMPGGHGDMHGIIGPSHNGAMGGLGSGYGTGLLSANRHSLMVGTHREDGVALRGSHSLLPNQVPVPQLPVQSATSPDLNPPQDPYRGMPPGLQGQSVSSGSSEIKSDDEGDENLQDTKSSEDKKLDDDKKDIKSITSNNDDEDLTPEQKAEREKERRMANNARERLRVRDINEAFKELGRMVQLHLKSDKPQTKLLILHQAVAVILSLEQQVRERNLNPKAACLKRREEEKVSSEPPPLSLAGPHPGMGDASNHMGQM

Row | Variant | effect of a mutation on the interaction
27 | R487P | with no effect

Variants of: B8
Conditions: with traf1_human TRAF1, Q13077
traf1_human TRAF1, Q13077, sequence (Q13077 whole entry): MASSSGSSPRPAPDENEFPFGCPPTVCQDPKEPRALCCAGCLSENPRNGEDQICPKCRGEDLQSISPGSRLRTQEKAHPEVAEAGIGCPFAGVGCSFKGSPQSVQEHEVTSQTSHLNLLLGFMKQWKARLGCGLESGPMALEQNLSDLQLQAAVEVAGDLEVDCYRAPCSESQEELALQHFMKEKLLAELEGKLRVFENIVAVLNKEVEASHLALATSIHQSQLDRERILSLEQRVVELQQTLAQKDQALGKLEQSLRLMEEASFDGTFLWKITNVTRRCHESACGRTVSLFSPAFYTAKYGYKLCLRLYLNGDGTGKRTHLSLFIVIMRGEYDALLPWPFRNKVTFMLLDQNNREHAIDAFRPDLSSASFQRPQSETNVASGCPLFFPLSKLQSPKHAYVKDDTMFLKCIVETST

Row | Variant | effect of a mutation on the interaction
28 | R487P | with no effect

Variants of: B8
Conditions: with taxb1_human TAX1BP1, Q86VP1

Row | Variant | effect of a mutation on the interaction
29 | R487P | with no effect

— IntAct's records for PubMed 31515488
